T1: IL-18 receptor (IL-18Rα/IL-18Rβ) overexpressed on HEK-Blue IL-18 cells (Homo sapiens (Human), UniProt Q13478 19-541; O95256 20-599)
T1 sequence 1: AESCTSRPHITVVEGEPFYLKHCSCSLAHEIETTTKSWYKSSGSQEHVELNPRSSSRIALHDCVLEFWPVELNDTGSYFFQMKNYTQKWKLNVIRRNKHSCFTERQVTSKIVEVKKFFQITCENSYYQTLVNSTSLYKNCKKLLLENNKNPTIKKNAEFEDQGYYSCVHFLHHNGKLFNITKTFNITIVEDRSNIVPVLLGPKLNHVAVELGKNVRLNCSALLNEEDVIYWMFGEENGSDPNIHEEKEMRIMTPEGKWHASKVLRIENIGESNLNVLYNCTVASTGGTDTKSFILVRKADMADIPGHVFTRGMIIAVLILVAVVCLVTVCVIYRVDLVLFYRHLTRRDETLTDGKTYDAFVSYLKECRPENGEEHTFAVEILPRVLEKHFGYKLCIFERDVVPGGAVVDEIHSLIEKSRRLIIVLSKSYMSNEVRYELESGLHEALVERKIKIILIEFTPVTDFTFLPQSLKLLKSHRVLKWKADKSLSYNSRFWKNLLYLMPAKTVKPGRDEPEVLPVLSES
T1 sequence 2: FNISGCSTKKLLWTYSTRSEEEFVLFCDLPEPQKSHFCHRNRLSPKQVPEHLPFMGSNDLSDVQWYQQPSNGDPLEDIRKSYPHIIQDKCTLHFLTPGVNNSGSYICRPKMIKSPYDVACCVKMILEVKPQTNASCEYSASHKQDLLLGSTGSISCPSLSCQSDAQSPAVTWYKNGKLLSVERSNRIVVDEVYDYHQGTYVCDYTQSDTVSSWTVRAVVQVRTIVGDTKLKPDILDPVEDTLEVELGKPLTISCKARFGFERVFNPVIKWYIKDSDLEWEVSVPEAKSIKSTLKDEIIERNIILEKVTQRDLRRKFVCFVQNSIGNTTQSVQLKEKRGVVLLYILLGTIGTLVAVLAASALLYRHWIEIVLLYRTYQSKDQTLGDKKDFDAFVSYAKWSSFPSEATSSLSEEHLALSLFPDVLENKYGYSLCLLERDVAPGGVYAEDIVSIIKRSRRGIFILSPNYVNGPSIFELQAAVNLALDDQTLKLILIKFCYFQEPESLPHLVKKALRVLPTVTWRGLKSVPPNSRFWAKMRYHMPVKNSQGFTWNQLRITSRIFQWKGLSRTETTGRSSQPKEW

B1: DGL312 (bispecific antibody, V domains shown)
V domain 1: QVQLVESGGGLVQAGGSLRLSCAASGRTFSSYDMGWFRQAPGKEREFVAALRWSGGSTSYADSVKGRFTISRDNAKNTVYLHMNSLKPEDTAVYYCAATLETDSGTYWADYWGQGTQVTVSS
V domain 2: QVQLVESGGGLVQAGGSLRLSCAASGMFFSIGEMGWYRQAPGKQREMVARITRDGRINYADSVEGRFTASRNVAKTTLFLQMNSLKPEDTANYQCTVRRWDEEYWGKGTLVTVSD
B2: DGL313 (bispecific antibody, V domains shown)
V domain 1: EVQLVESGGGLVQPGGSLRLSCAASGSIFSINAMGWYRQAPGKQREVVATSTGGGMTNYADSVKGRFTISRDNAKNTVYLQMNSLKPEDTAVYYCNADKDPFFPGDYWGQGTQVTVSS
V domain 2: QVQLVESGGGLVQAGGSLRLSCAASGMFFSIGEMGWYRQAPGKQREMVARITRDGRINYADSVEGRFTASRNVAKTTLFLQMNSLKPEDTANYQCTVRRWDEEYWGKGTLVTVSD
B3: DGL314 (bispecific antibody, V domains shown)
V domain 1: QVQLQESGGGLVQPGGSLRLSCAASGSIFSTKGLGWYRQAPGEQRELVAGISSAGWIFYTQSVKGRFTMSRDNAKNTVYLQMNSLKPEDTAVYYCNSAQSGVPLRSWGQGTQVTVAS
V domain 2: QVQLVESGGGLVQAGGSLRLSCAASGMFFSIGEMGWYRQAPGKQREMVARITRDGRINYADSVEGRFTASRNVAKTTLFLQMNSLKPEDTANYQCTVRRWDEEYWGKGTLVTVSD
B4: DGL315 (bispecific antibody, V domains shown)
V domain 1: QVQLQESGGGLVQPGGSARLSCVASGIIFNDYHMGWYRQAPGKQRDLVAGITAGGSTTYADSVKGRFTISRDNAKHTVYLQMNNLSPEDTAVYYCNTFYNAILDWGKGTLVTVSS
V domain 2: QVQLVESGGGLVQAGGSLRLSCAASGMFFSIGEMGWYRQAPGKQREMVARITRDGRINYADSVEGRFTASRNVAKTTLFLQMNSLKPEDTANYQCTVRRWDEEYWGKGTLVTVSD
B5: DGL310 (bispecific antibody, V domains shown)
V domain 1: QVQLVESGGGLVQAGGSLRLSCAASGRTFSKHAMGWFRQAPGKEREFVAAIDWSGGSTYYADSVKGRFTISRDNAKNTVYLQMDSLKPEDTAVYYCAADSYTDYAQLWLPELESEYDYWGQGTQVTVSS
V domain 2: EVQLVESGGGVAQAGGSLRLSCAASITSFSLNTMGYYRQLPGKQRELVAVESSSGITNYADSVKGRFTISRDGAKNTVFLQMNSLTPEDTAVYYCGGKLFGRDFWGQGTQVTVSS
B6: DGL311 (bispecific antibody, V domains shown)
V domain 1: QVQLVESGGGLVQAGGSLRLSCAASGRTFSSYTMGWFRQAPGKEREFVAAISWSAGRTYYADSVKGRFTISRDNAKNTVYLQMNSLKPEDTAVYFCAAEEAPDWAPIDCSGYGCLSLYDYWGQGTQVTVSS
V domain 2: EVQLVESGGGVAQAGGSLRLSCAASITSFSLNTMGYYRQLPGKQRELVAVESSSGITNYADSVKGRFTISRDGAKNTVFLQMNSLTPEDTAVYYCGGKLFGRDFWGQGTQVTVSS
B7: DGL316 (bispecific antibody, V domains shown)
V domain 1: QVQLVESGGGLVQAGGSLRLSCAASGRTFSKHAMGWFRQAPGKEREFVAAIDWSGGSTYYADSVKGRFTISRDNAKNTVYLQMDSLKPEDTAVYYCAADSYTDYAQLWLPELESEYDYWGQGTQVTVSS
V domain 2: QVQLVESGGGLVQAGGSLRLSCAASGMFFSIGEMGWYRQAPGKQREMVARITRDGRINYADSVEGRFTASRNVAKTTLFLQMNSLKPEDTANYQCTVRRWDEEYWGKGTLVTVSD

This assay concerns the target T1, IL-18 receptor (IL-18Rα/IL-18Rβ) …. Nature of the assay: cell-based or functional assay.
For B1, the “HEK-Blue IL-18: Abs 405” value stood at 0.63 Abs and the “HEK-Blue IL-18: Fold over Background” value is 2.7 fold.
Consider B2, for which the “HEK-Blue IL-18: Abs 405” value amounted to 0.62 Abs and the “HEK-Blue IL-18: Fold over Background” value worked out at 2.7 fold.
In the case of B3, the “HEK-Blue IL-18: Abs 405” value stood at 0.83 Abs and the “HEK-Blue IL-18: Fold over Background” value worked out at 3.6 fold.
Consider B4, for which the “HEK-Blue IL-18: Abs 405” value is 0.58 Abs and the “HEK-Blue IL-18: Fold over Background” value was 2.5 fold.
With B5, the “HEK-Blue IL-18: Abs 405” value is 2.7 Abs and the “HEK-Blue IL-18: Fold over Background” value came to 11.8 fold.
The matching figures for B6: 0.79 Abs and 3.4 fold.
On to B7, for which the “HEK-Blue IL-18: Abs 405” value turned out to be 0.58 Abs and the “HEK-Blue IL-18: Fold over Background” value came out at 2.5 fold.

The values above are taken from patent US20240209100A1 (DIAGONAL THERAPEUTICS, published 2024).
